± gives the uncertainty stated by the source.

This data set can be described thus: amyloid nucleation score (Sup35N fusion, yeast selection) (log enrichment); library NNK2; higher = more nucleation; inactive = no reads after selection. Summed up: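 In psi-negative yeast, Sup35N fusions carrying peptides of 20 random codons were induced with 100 μM copper sulfate for 24 hours. The cells then grew 7 days at 30°C on medium lacking adenine and uracil, and plasmid inserts from input and output were Illumina-sequenced, excluding sequences with under 100 input reads. Nucleation score is the DiMSum log enrichment of output over input reads, centred on the mode score of non-aggregating sequences.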

In turn, KLVCRMTGCFWVVFIACPYY displayed an amyloid nucleation score of 0.175 ± 0.35. In turn, FIICPSSDCNIRDIRRILTC had an amyloid nucleation score of -0.967 ± 0.28. With YTFYLNF the figure was 5.27 ± 0.053. With WWGGINSVLVTDEWLVRLGK the figure was -0.166 ± 0.19; with YGPLTIDGFRHAYV, 0.95 ± 0.29; with DFSFVANCSDYLLNILFKGE, -0.066 ± 0.74. With QARLLSYLGDLVLASSWKVL the figure was -0.891 ± 0.64. On to SNYDGPGSYIYEKYCSSEEG, for which the amyloid nucleation score was -0.703 ± 1. With KTFFVYIRSNYCV the figure was -1.24 ± 0.62. Substance MISVVRKPPLIISVIRSRWD had an amyloid nucleation score of 0.687 ± 0.47.

For DSRCDRAPDCGMNHCIYILC, the amyloid nucleation score came to 6.76 ± 0.082.

The substance HSWAKMFMMLWGTMSRWDRA yielded an amyloid nucleation score of -0.205 ± 0.62. With FQYENNVDNG the figure was -1.75 ± 0.62. Turning to IYGLCERTFEA, the amyloid nucleation score amounted to 0.977 ± 0.14. With TPTYLRYIVVIYL the figure was 2.41 ± 0.11; with FHLEPLKWSWVST, -0.837 ± 1.1; with AIRADTDFDYTIEGSVDGGG, -0.199 ± 0.63. With ILNNMIL the figure was 2.55 ± 0.21; with SLQYRTSDSQWYVVYCSQEP, 0.484 ± 0.19; with FWRVRVFGASLFL, “inactive”.

For the substance VISEGRHKSFSL, the amyloid nucleation score is -0.105 ± 1.1.

In the case of GNNNMRPIALCTLSMGGRTF, the amyloid nucleation score is -0.575 ± 0.49. With IAAYLLNSQYDSCNVDEKRH the figure was -0.448 ± 0.39; with GKGDVGESRADCLAYSRRMS, 0.868 ± 0.45; with LSSTFLNFA, “inactive”.

As for CRLCWE, the amyloid nucleation score was -0.459 ± 0.61.

Take NCWNLICLKSSFRR: the amyloid nucleation score stood at 9.054 ± 0.05. With CCFRKWSSTAHRRFPCWREL the figure was 0.255 ± 0.54. With TFNLVILGVGHSHHFQRNNH the figure was 8.269 ± 0.046; with KFKDHVGLYKPMGSRKFLDW, -0.28 ± 0.28. With FTLALSYITRTKSTHAC the figure was -0.27 ± 1.1. In turn, SNVTTYSNVSYIRHHSHYLG had an amyloid nucleation score of 1.32 ± 0.44. Regarding NACILNSM, the amyloid nucleation score result was “inactive”. With RVYLFFYAYHHVICANSSYK the figure was -1.11 ± 0.56.

The substance RFRFGAVNLV yielded an amyloid nucleation score of 0.849 ± 0.49. With MDLLPNSGYGLRSDLRVLAE the figure was 3.5 ± 0.097. With YSVDACMMNGSVDKTVSFR the figure was 0.122 ± 1.1; with YEPRSNLCCIINTIKFPKTI, 6.169 ± 0.031; with LEYERC, -0.097 ± 1.1. Turning to FRDCYCRVVAPYDLHFVCTW, the amyloid nucleation score was 0.573 ± 0.15. With PTMYWFPPETATSPPYGPPG the figure was 3.54 ± 0.1. With NMTKRWMVCYHFFFKNYDLT the figure was 0.207 ± 0.8.

As for KDNYNLNTGSSTISGHRWFA, the amyloid nucleation score entry is “inactive”.

Substance REQYPYINQHRP returned an amyloid nucleation score of 2.52 ± 0.14. With LGGWLNGKGDPSMTASTSAS the figure was 0.799 ± 0.32. With IYFGMDASKIGLLYVVGYSG the figure was 0.067 ± 0.63; with PRRSNTCWNSCISEMIGIRS, 0.664 ± 0.51. With VYLINRWVYPWEFIVHIIRV the entry was “inactive”; with MPCLFVF, 2.28 ± 0.17; with DGSSDRQGVKFFVDTSFLSR, -0.593 ± 0.48. With TLCVAIMYMHLGYAL, the amyloid nucleation score was determined as 0.178 ± 0.5.

ASSMILL yielded an amyloid nucleation score of -1.18 ± 0.64.

The substance LCLIGRYRMSERALRLRWLV yielded an amyloid nucleation score of 2.54 ± 0.11.

Take SARAICMAVLESSESDHNGV: the amyloid nucleation score is -0.299 ± 0.36.

Substance FSMQSMSKGYVLRPLGMA had an amyloid nucleation score of -0.098 ± 0.3. YKMPK: the amyloid nucleation score was 0.443 ± 0.8. With MYTKVNF the figure was -0.93 ± 0.76; with SFPAGICPLMRLVYVNMGVG, -0.683 ± 1.1. With ILKPDMWFKGARCDTNQLNC the figure was -0.62 ± 0.39. With SCFLSMYVISV the entry was “inactive”; with SALHCISLDVHRIFGSKNAR, 1.36 ± 0.46. In the case of AGDTLWNGGMVEWFVWRLPG, the amyloid nucleation score came out at 0.178 ± 0.74. With NTQVTQVILYLRPWV the figure was 9.151 ± 0.038; with WIAGLCPVDMADL, 0.644 ± 0.23. With IYKGTASIISCRWGWSVRHW the figure was -0.573 ± 0.79; with FASLCTW, -0.211 ± 0.46; with SYPVDEMMRFCLFVMDTGQL, 0.106 ± 0.54. SLPFTLLNKSAHWNSLWFPG showed an amyloid nucleation score of -1.24 ± 1.1. With FIMMDRAGSMIYSKGTRNIR the figure was 3.05 ± 0.11; with GLCMYGVTAKRMLVVWRERG, 8.804 ± 0.046. With CKCSAAIDVRDYVS the figure was -0.02 ± 1.1.

Take QFHFWMQRMMFPLEFVIWVW: the amyloid nucleation score was 1.33 ± 0.34.

Turning to ALMNPHFFSWCLKMVGYGYR, the amyloid nucleation score result was “inactive”. Consider NELKY, for which the amyloid nucleation score stood at 0.02 ± 0.56.

On to VVLSCFLQRAPQVYSLF, for which the amyloid nucleation score is -0.821 ± 1.1. With NDKCKLVLIGLDFNELVQPS the figure was -0.708 ± 1.1; with LIEAESSDRGPYVPNQCGWN, 1.11 ± 0.68. With APSVLGAYQIHRGRVHVLSA the figure was 0.494 ± 0.29; with IWMRVVC, 0.337 ± 0.8; with AWRGFTSIGAYYAQFGLGVA, 0.431 ± 0.36. With GKSYVYIRLGIFSMWASHRR the figure was 2.72 ± 0.08; with SYNLNSNRVESIDFSSIIIV, -0.459 ± 1.1.

SRFRGKLCFGWHKYAFGEVF gave an amyloid nucleation score of -0.711 ± 0.79. Substance TNRLMVEVALIFRSINCVNR showed an amyloid nucleation score of -0.561 ± 0.38. With KRSKSR the entry was “inactive”. With YLLSNWTNKVSWFLCVRPQS the figure was 2.23 ± 0.12. With NLSYSVVMTGISGAMTTCCF the figure was 3.64 ± 0.11; with VSLSERLTHLLCIRF, 0.343 ± 0.64; with MELRFDCF, 0.089 ± 1.1. Consider YVLIVRYILGSSLRELAYGR, for which the amyloid nucleation score was -0.38 ± 0.3. With VVILFVLGLVNPELS the figure was 0.649 ± 0.55; with MDFGVLARSNLYIIYYLCLR, “inactive”. With GVWICFRSAMNSIKACFNNR the figure was 5.395 ± 0.04; with HNSMSWFR, 4.45 ± 0.058. LMWENFSRRLLYWLLCGS: the amyloid nucleation score entry was “inactive”. With NADHDLSEILVNRRTGWFHF the figure was 5.836 ± 0.041.

Substance LLSISCV came in with an amyloid nucleation score of 0.512 ± 0.34. With VRFYDLFFKVGRQVYCLNNS the figure was -0.694 ± 0.55; with FRWCKRMGLCNLVNDLGCDW, 0.446 ± 0.64; with VLSHYIRLHKSLDLSYSNGV, -0.817 ± 0.61. As to GEPLNGSAGLVGH, the amyloid nucleation score was 0.234 ± 0.34. With NRAFLMSYAPRRHFGAMSKA the figure was 3.51 ± 0.073; with PRWAKYYVLSRC, -1.6 ± 1.1; with NCKWCNT, 0.996 ± 0.29. As for CMRVVDGCFYFLDWSGVTDF, the amyloid nucleation score is -1.55 ± 1.1. With FFIYGNSHVSVIRYWTCTLT the figure was 7.391 ± 0.049. With TQLTDASSELLPPGSRLQCS the figure was 1.03 ± 0.36. With LVDRPGFSVNVD the figure was -0.191 ± 0.35; with IVLLAVI, 0.539 ± 0.81. SSWLEVAMTALRSIWYMD displayed an amyloid nucleation score of 0.103 ± 0.26. With VVNTVYSFSE the figure was 0.332 ± 0.35. SHWEMRQVGSVVVGIKGKGN gave an amyloid nucleation score of 0.972 ± 0.67. With IVILTC the figure was 0.464 ± 0.26. With VKFCIMSGSTKTINNYSQAR the figure was 5.57 ± 0.09. With TSYACRVIAMRVVCPCRQLR, the amyloid nucleation score result was “inactive”. Consider RRAENLMEFGLIRAFY, for which the amyloid nucleation score is -0.007 ± 0.63. With VLGLKKSADYKS the figure was -0.556 ± 0.74; with DMQGRVVRR, -0.855 ± 0.61; with GQWGETY, 0.476 ± 0.25. With KNIVVTSPVLMNST the figure was -0.179 ± 0.63; with YIPARSRMGYVAQKLGTTRL, -0.025 ± 0.61. With IPMSRGVQF the figure was 0.82 ± 0.14.

MYEFQPRLDHRLFRYICMNV had an amyloid nucleation score of -0.018 ± 1.1. With NFLMV the figure was 0.75 ± 0.47; with TANKLLVSIIKIEEYVSRGT, 4.73 ± 0.058.

In turn, VKTQSTVWSYR yielded an amyloid nucleation score of 0.409 ± 0.28. With PRMRWAVCERP the figure was 4.11 ± 0.096; with FLIFDRSKCCCVDTRGSGGT, “inactive”; with VYFSCFSLWSSYDVIGRWSC, 7.446 ± 0.036. With FAMDSIKRFFKIIIFSRYT the figure was -1.34 ± 1.1; with KIYSTSYDNNTSYISCVWSH, 6.708 ± 0.029; with RESTTRMSAGNVYRVTHKHS, 0.224 ± 0.4. With IGISWLATWPIEFTRLSRMV the figure was 1.53 ± 0.52; with PNIKNIT, 2.38 ± 0.24. In turn, SVYGQRNTIIFEFSWMRTAS displayed an amyloid nucleation score of 7.492 ± 0.04. With SLIDLLPCFFICRGRCFPSV the figure was -0.672 ± 0.37; with LYSDGVIDMRRLCKVL, -0.841 ± 0.62. With SFGGARVSLLCCFPSTSIAS the figure was 9.374 ± 0.036. With AHSKHPGTYGQFMSEQSGEA the figure was 0.767 ± 0.51; with NPYAHTGHCVIRGFFVA, 0.275 ± 0.53. As for FACRWFQSWSLRYLFPELTL, the amyloid nucleation score is -0.238 ± 0.5.
